Target: Adenovirus 5 receptor (cell surface fiber receptor on HeLa cells)
Assay: cell-based or functional assay

## Adenovirus 5 fiber protein (from UniProt P11818 1-581) (ligand)
  percentage of adenoviral transduction of HeLa cells by Av1LacZ4 (β-galactosidase positive cells) after preincubation with competitor fiber: 0.1 to 1 pg/mL
